This note sets out measurements from patent publication US20250002576A1 (FUSION PHARMACEUTICALS, published 2025).

First the molecules themselves.
T1: hCLDN18.1 (antigen of the scFv screening) (human, UniProt P56856 28-80)
T1 construct: ELISA or flow cytometry according to the selection strategy
T1 sequence (looked up): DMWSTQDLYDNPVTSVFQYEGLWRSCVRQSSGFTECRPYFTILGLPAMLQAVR

B1: YU575-H03 (antibody, V domains shown)
VH: not shown
VL: QSVLTQPPSVSGAPGQRVTISCTGSSSNIGAGYDVHWYQQLPGTAPKLLIYGNSNRPSGVPDRFSGSKSGTSASLAITGLQAEDEADYYCQSYDSSLSGYVFGTGTKLTVL
B2: YU574-D03 (antibody, V domains shown)
VH: not shown
VL: DIVMTQSPSSVSASVGDRVTITCRASQGISSWLAWYQQKPGKAPKLLIYAASSLQSGVPSRFSGSGSGTDFTLTISSLQPEDFATYYCQQANSFPLTFGGGTKVDIK
B3: YU577-H07 (antibody, V domains shown)
VH: not shown
VL: DIQMTQSPSSVSASVGDRVTITCRASQGISSWLAWYQQKPGKAPKLLIYAASSLQSGVPSRFSGSGSGTDFTLTISSLQPEDFATYYCQQANSFPLTFGGGTKLEIK
B4: YU574-H09 (antibody, V domains shown)
VH: QVQLVQSGAEVKKPGASVKVSCKASGYTFTSYYMHWVRQAPGQGLEWMGIINPSGGSTSYAQKFQGRVTMTRDTSTSTVYMELSSLRSEDTAVYYCARGGSGFDYWGQGTLVTVSS
VL: not shown
B5: YU578-F02 (antibody, V domains shown)
VH: not shown
VL: DIVMTQSPSFLSASVGDRVTITCRASQGISSYLAWYQQKPGKAPKLLIYAASTLQSGVPSRFSGSGSGTEFTLTISSLQPEDFATYYCQQLNSYPITFGQGTKLEIK
B6: YU574-D11 (scFv as screened) (scFv, V domains shown)
VH: QVQLVQSGGGLVQPGGSLRLSCAASGFTFSSYAMSWVRQAPGKGLEWVSAISGSGGSTYYADSVKGRFTISRDNSKNTLYLQMNSLRAEDTAVYYCAGGANGFDPWGQGTLVTVSS
VL: QSVLTQPPSVSGAPGQRVTISCTGSSSNIGAGYDVHWYQQLPGTAPKLLIYGNSNRPSGVPDRFSGSKSGTSASLAITGLQAEDEADYYCQSYDSSLSGLVFGGGTKLTVL
B7: YU574-E07 (scFv as screened) (scFv, V domains shown)
VH: QVQLQESGGGVVQPGRSLRLSCAASGFTFSSYGMHWVRQAPGKGLEWVAVISYDGSNKYYADSVKGRFTISRDNSKNTLYLQMNSLRAEDTAVYYCAKDQRGGLYGMDVWGQGTLVTVSS
VL: QSVLTQPPSASGAPGQRVTISCTGSSSNIGAGYDVHWYQQLPGTAPKLLIYGNSNRPSGVPDRFSGSKSGTSASLAITGLQAEDEADYYCQSYDSSLSGWVFGGGTKLTVL
B8: YU575-H03 (scFv as screened) (scFv, V domains shown)
VH: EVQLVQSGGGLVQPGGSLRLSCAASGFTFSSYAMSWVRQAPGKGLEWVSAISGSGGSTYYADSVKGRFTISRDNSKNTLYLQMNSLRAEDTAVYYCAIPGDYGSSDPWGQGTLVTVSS
VL: QSVLTQPPSVSGAPGQRVTISCTGSSSNIGAGYDVHWYQQLPGTAPKLLIYGNSNRPSGVPDRFSGSKSGTSASLAITGLQAEDEADYYCQSYDSSLSGYVFGTGTKLTVL
B9: YU577-B01 (scFv as screened) (scFv, V domains shown)
VH: EVQLVESGGGVVQPGRSLRLSCAASGFTFSSYGMHWVRQAPGKGLEWVAVISYDGSNKYYADSVKGRFTISRDNSKNTLYLQMNSLRAEDTAVYYCAKDVTYYYDSSGSPDFDYWGQGTLVTVSS
VL: DIQLTQSPSSLSASVGDRVTITCRASQGISNYLAWFQQKPGKAPKSLIYAASSLQSGVPSKFSGSGSGTDFTLTISSLQPEDFATYYCQQYNSYPYSFGQGTKVEIK
B10: YU577-H07 (scFv as screened) (scFv, V domains shown)
VH: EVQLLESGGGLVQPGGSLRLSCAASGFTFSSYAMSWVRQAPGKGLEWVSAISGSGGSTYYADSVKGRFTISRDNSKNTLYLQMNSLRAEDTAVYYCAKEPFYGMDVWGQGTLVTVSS
VL: DIQMTQSPSSVSASVGDRVTITCRASQGISSWLAWYQQKPGKAPKLLIYAASSLQSGVPSRFSGSGSGTDFTLTISSLQPEDFATYYCQQANSFPLTFGGGTKLEIK
B11: YU578-D01 (scFv as screened) (scFv, V domains shown)
VH: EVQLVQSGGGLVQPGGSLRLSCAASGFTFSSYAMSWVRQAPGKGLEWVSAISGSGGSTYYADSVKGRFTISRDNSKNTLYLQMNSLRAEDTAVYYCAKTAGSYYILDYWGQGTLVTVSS
VL: DIQLTQSPSSLSASVGDRVTITCRASQGISNYLAWFQQKPGKAPKSLIYAASSLQSGVPSKFSGSGSGTDFTLTISSLQPEDFATYYCQQYNSYPLTFGGGTKVDIK
B12: YU577-E12 (scFv as screened) (scFv, V domains shown)
VH: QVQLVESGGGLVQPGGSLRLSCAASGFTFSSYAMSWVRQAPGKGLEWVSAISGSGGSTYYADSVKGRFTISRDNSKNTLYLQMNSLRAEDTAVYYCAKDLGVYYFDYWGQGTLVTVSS
VL: DIVMTQSPSFLSASAGDRVTITCRASQGISSYLAWYQQKPGKGPKLLIYAASTLQSGVPSRFSGSGSGTEFTLTISSLQPEDFATYYCQQVNSYPLTFGPGTKVDIK
B13: YU577-B11 (scFv as screened) (scFv, V domains shown)
VH: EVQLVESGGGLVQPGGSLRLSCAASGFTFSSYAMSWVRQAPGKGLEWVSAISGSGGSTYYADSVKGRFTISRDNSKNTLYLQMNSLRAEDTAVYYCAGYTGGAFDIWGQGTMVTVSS
VL: DIQMTQSPSSVSASVGDRVTITCRASQGISSWLAWYQQKPGKAPKLLIYAASSLQSGVPSRFSGSGSGTDFTLTISSLQPEDFATYYCQQANSFPLTFGGGTKLEIK
B14: YU574-D03 (scFv as screened) (scFv, V domains shown)
VH: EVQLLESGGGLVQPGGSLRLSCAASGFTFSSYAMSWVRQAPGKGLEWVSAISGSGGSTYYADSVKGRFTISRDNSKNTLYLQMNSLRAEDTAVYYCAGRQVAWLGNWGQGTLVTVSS
VL: DIVMTQSPSSVSASVGDRVTITCRASQGISSWLAWYQQKPGKAPKLLIYAASSLQSGVPSRFSGSGSGTDFTLTISSLQPEDFATYYCQQANSFPLTFGGGTKVDIK
B15: YU577-E08 (scFv as screened) (scFv, V domains shown)
VH: QVQLVQSGAEVKKPGASVKVSCKASGYTFTSYYMHWVRQAPGQGLEWMGIINPSGGSTSYAQKFQGRVTMTRDTSTSTVYMELSSLRSEDTAVYYCATRQFDYWGQGTLVTVSS
VL: QSVLTQPPSVSAAPGQKVTISCSGSSSNIGNNYVSWYQQLPGTAPKLLIYENNKRPSGIPDRFSGSKSGTSATLGITGLQTGDEADYYCGTWDSSLSAAVFGGGTKVTVL
B16: YU574-H09 (scFv as screened) (scFv, V domains shown)
VH: QVQLVQSGAEVKKPGASVKVSCKASGYTFTSYYMHWVRQAPGQGLEWMGIINPSGGSTSYAQKFQGRVTMTRDTSTSTVYMELSSLRSEDTAVYYCARGGSGFDYWGQGTLVTVSS
VL: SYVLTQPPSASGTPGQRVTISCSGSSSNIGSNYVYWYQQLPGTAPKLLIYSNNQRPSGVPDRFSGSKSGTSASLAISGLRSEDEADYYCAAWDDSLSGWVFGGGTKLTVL
B17: YU578-F02 (scFv as screened) (scFv, V domains shown)
VH: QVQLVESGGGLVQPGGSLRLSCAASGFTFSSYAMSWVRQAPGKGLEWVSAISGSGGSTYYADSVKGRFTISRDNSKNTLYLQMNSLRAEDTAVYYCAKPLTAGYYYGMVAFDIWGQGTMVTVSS
VL: DIVMTQSPSFLSASVGDRVTITCRASQGISSYLAWYQQKPGKAPKLLIYAASTLQSGVPSRFSGSGSGTEFTLTISSLQPEDFATYYCQQLNSYPITFGQGTKLEIK

One assay concerns the target lysozyme. Description: non-specific binding ELISA, lysozyme immobilized. On the procedure:
DNA, LPS, lysozyme, and cell lysate were immobilized onto microtiter plates. Testing antibodies were added to the wells and incubated. Bound antibodies were detected via a fluorescently-labeled substrate. The fluorescence intensity was normalized to the signal of a control antibody (trastuzumab). Higher normalized signal correlates to stronger off-target or non-specific binding.
Consider B1, for which the “normalized signal (fluorescence intensity normalized to trastuzumab)” value (shortened to “normalized signal”) was determined as 0.9.

With B2, the “normalized signal” value came out at 1.1.

With B3, the “normalized signal” value was 1.3.

B4: the “normalized signal” value stood at 1.3.

For the molecule B5, the “normalized signal” value was 1.

Another assay addresses T1, hCLDN18.1 (antigen of the scFv …). Description: ELISA or flow cytometry, scFv screening. On the procedure: A naïve human antibody library was used to select CLDN18.2 antibodies and incubated with CLDN18.2 antigen or CLDN18.2-expressing cells for four rounds of biopanning, following the strategy described in Table 3. Monoclonal antibody clones were selected, produced as scFv antibodies, and screened using ELISA (clones identified from Strategy 1 or 2) or flow cytometry (clones identified from Strategy 3 or 4) to identify clones with hCLDN18.2 affinity and no hCLDN18.1 cross-reactivity. 188 such clones were and subsequently sequenced, yielding 68 unique antibodies. The unique antibodies were further screened using flow cytometry to identify clones with mCLDN18.2 affinity, yielding 50 human/mouse cross-reactive antibody clones.
In the case of B6, the binding result is on record as “no binding”.

B7: the binding result is on record as “no binding”.

Take B8: the binding result is recorded as “no binding”.

For the molecule B9, the binding result is listed as “no binding”.

For the molecule B10, the binding result is listed as “no binding”.

Consider B11, for which the binding result was “no binding”.

B12: the binding result was “no binding”.

With B13, the binding result was “no binding”.

On to B14, for which the binding result is given as “no binding”.

Take B15: the binding result is on record as “no binding”.

Regarding B16, the binding result is “no binding”.

For the molecule B17, the binding result is “no binding”.
